From US9745384B2, “Peptides useful for modulating histone demethylase function” (The Brigham and Women's Hospital, Inc., priority 2012, dated 2017)

Experiments:
[1] = molecular target: T1, His-LSD2 (Homo sapiens, UniProt Q8NB78); experiment: Nucleosome demethylation assay (NPAC cofactor activity for LSD2, immunoblot); assay type: biochemical; settings: for Cofactor activity: stimulation of LSD2 demethylation of nucleosomal H3K4me2: threshold dosage of His-LSD2, nucleosomes purified from HeLa
T1 construct: typically 0.5 μg full-length His-LSD2; made in house; host or cells: Sf9 insect cells
T1 sequence (Q8NB78 1-822): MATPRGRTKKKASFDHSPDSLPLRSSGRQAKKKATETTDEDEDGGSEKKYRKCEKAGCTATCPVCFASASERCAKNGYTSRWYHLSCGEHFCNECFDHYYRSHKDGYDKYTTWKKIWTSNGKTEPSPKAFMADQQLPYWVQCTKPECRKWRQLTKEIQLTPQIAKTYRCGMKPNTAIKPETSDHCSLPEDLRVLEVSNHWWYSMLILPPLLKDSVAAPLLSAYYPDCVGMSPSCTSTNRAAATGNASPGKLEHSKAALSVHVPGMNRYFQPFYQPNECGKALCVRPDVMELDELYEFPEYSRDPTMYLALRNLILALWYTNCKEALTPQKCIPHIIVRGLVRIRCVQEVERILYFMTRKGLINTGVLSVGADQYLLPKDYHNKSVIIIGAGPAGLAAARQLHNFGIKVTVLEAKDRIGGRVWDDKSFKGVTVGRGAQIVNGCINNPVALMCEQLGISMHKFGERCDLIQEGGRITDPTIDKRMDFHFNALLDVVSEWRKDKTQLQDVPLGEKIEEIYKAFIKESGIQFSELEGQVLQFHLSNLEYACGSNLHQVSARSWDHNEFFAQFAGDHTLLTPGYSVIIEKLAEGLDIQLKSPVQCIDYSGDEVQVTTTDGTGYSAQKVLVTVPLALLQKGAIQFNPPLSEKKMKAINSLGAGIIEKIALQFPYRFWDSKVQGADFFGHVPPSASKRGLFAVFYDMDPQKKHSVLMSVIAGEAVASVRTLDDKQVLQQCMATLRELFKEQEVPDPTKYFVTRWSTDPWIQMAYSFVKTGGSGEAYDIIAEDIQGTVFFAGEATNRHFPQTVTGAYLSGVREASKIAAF
Procedure: For nucleosome demethylation assays, typically 0.5 μg full-length His-LSD2, 1 μg NPAC protein or peptides, and 2 μg nucleosomes purified from HeLa were used, and demethylation efficiency was analyzed by SDS-PAGE electrophoresis and immunoblot using methylation specific anti-histone H3 antibodies as previously described (Shi et al. 2004).

[2] = system: CCND1 and CCNE1 expression; experiment: CCND1 and CCNE1 expression in breast cancer cells; assay type: cell-based; settings: stable MDA-MB-231 cell lines, shRNA-resistant cDNA
Text: We first established stable MDA-MB-231 cell lines that express similar levels of the mutant or the wild-type full-length NPAC from cDNAs introduced with silent mutations and resistant to NPAC shRNA (data not shown). […] Thus, mutation of the LSD2-interacting residues F218, L219 and L291 of NPAC can disrupt LSD2 and NPAC functions in vivo.
We next examined if it is possible to use a small molecule to manipulate the interaction between NPAC and LSD2, thus affecting target gene expression. We have shown that a short mutant NPAC peptide (residues 214-225) can interact with LSD2 with high affinity, however, lost its cofactor activity. NPAC214-225.F217A is expected to be able to competitive inhibit the interaction between endogenous NPAC and LSD2, without stimulating LSD2 demethylase activity (FIG. 25A, right). […] Thus, unable to stimulate the histone demethylase activity of endogenous LSD2, this mutant peptide is a potent inhibitor of LSD2 function by competitively inhibiting LSD2 binding by endogenous NPAC.

[3] = molecular target: T2, LSD2 (Homo sapiens, UniProt Q8NB78); experiment: H3K4me2 peptide demethylation assay (MALDI-TOF); assay type: biochemical; design: 0.15 μM or 1.2 μM purified LSD2 (residues 51-822); His6 (cleaved yes); made in house; host or cells: Sf9 insect cells (baculovirus); settings: longer H3K4me2 peptide residues 1-44
T2 sequence (Q8NB78 1-822): T1 sequence (Q8NB78 1-822)
Procedure: FIGS. 12A-12F depict analysis of LSD2 demethylation activity and mutational analysis. […] Demethylation products were analyzed by MALDI-TOF mass spectrometry. 0.15 μM LSD2 can efficiently demethylate the longer H3K4me2 peptide (1-21), but has no detectable activity on the shorter histone peptide (1-15), demethylation of which requires high concentration (1.2 μM) of LSD2. […] It indicates the importance of histone residue 16-21 to LSD2 enzymatic activity and NPAC cofactor activity, supporting our model that NPAC assists enzyme-substrate interactions by creating a new binding site for H3 L20 in the LSD2-NPAC complex. FIG. 12C depicts LSD2 demethylation and NPAC cofactor activity on longer H3K4me2 peptide (1-44). […] The cofactor activity of wild-type NPAC was readily detected under the same conditions. […] It is noted that no obvious cofactor effect of F217A peptide or linker regions was detected in nucleosome and peptide demethylation assays (FIG. 6E and data not shown). […]
Histone peptides are purchased from Millipore, or custom synthesized. The purity of all peptides are >95% as determined by HPLC and mass spectrometry. […] The products were desalted through a C18 Ziptip (Millipore) and analyzed on a MALDI-TOF micro MX mass spectrometer (ABI 4700, Applied Biosystems). […]

Cofactor activity: stimulation of LSD2 demethylation of nucleosomal H3K4me2 ([1]; listed as wild-type NPAC): robust activity
B1: NPAC: full-length human NPAC/GLYR1 (protein ID: Q49A26), recombinant, LSD2 cofactor (protein)
chain: MAAVSLRLGDLVWGKLGRYPPWPGKIVNPPKDLKKPRGKKCFFVKFFGTEDHAWIKVEQLKPYHAHKEEMIKINKGKRFQQAVDAVEEFLRRAKGKDQTSSHNSSDDKNRRNSSEERSRPNSGDEKRKLSLSEGKVKKNMGEGKKRVSSGSSERGSKSPLKRAQEQSPRKRGRPPKDEKDLTIPESSTVKGMMAGPMAAFKWQPTASEPVKDADPHFHHFLLSQTEKPAVCYQAITKKLKICEEETGSTSIQAADSTAVNGSITPTDKKIGFLGLGLMGSGIVSNLLKMGHTVTVWNRTAEKCDLFIQEGARLGRTPAEVVSTCDITFACVSDPKAAKDLVLGPSGVLQGIRPGKCYVDMSTVDADTVTELAQVIVSRGGRFLEAPVSGNQQLSNDGMLVILAAGDRGLYEDCSSCFQAMGKTSFFLGEVGNAAKMMLIVNMVQGSFMATIAEGLTLAHVTGQSQQTLLDILNQGQLASIFLDQKCQNILQGNFKPDFYLKYIQKDLRLAIALGDAVNHPTPMAAAANEVYKRAKALDQSDNDMSAVYRAYIH
Demethylase activity of NPAC itself ([1]; NPAC alone, without LSD2): no demethylase activity | Cofactor activity: stimulation of LSD2 demethylation of nucleosomal H3K4me2 ([1]; listed as His-NPAC): stimulated LSD2 activity in a dose-dependent manner | Rescue of CCND1 and CCNE1 down regulation caused by NPAC shRNA [2]: prevents down regulation of CCND1 and CCNE1 by NPAC shRNA | Cofactor activity: stimulation of LSD2 demethylation of H3K4me2 peptide [3]: can robustly stimulate LSD2 demethylation of the longer peptide (1-44)
